# Measured values reported in IntAct's records for PubMed 17052462.
# B1: B-cell CLL/lymphoma 9 protein (Homo sapiens), O00512 (parent)
# chain: MHSSNPKVRSSPSGNTQSSPKSKQEVMVRPPTVMSPSGNPQLDSKFSNQGKQGGSASQSQPSPCDSKSGGHTPKALPGPGGSMGLKNGAGNGAKGKGKRERSISADSFDQRDPGTPNDDSDIKECNSADHIKSQDSQHTPHSMTPSNATAPRSSTPSHGQTTATEPTPAQKTPAKVVYVFSTEMANKAAEAVLKGQVETIVSFHIQNISNNKTERSTAPLNTQISALRNDPKPLPQQPPAPANQDQNSSQNTRLQPTPPIPAPAPKPAAPPRPLDRESPGVENKLIPSVGSPASSTPLPPDGTGPNSTPNNRAVTPVSQGSNSSSADPKAPPPPPVSSGEPPTLGENPDGLSQEQLEHRERSLQTLRDIQRMLFPDEKEFTGAQSGGPQQNPGVLDGPQKKPEGPIQAMMAQSQSLGKGPGPRTDVGAPFGPQGHRDVPFSPDEMVPPSMNSQSGTIGPDHLDHMTPEQIAWLKLQQEFYEEKRRKQEQVVVQQCSLQDMMVHQHGPRGVVRGPPPPYQMTPSEGWAPGGTEPFSDGINMPHSLPPRGMAPHPNMPGSQMRLPGFAGMINSEMEGPNVPNPASRPGLSGVSWPDDVPKIPDGRNFPPGQGIFSGPGRGERFPNPQGLSEEMFQQQLAEKQLGLPPGMAMEGIRPSMEMNRMIPGSQRHMEPGNNPIFPRIPVEGPLSPSRGDFPKGIPPQMGPGRELEFGMVPSGMKGDVNLNVNMGSNSQMIPQKMREAGAGPEEMLKLRPGGSDMLPAQQKMVPLPFGEHPQQEYGMGPRPFLPMSQGPGSNSGLRNLREPIGPDQRTNSRLSHMPPLPLNPSSNPTSLNTAPPVQRGLGRKPLDISVAGSQVHSPGINPLKSPTMHQVQSPMLGSPSGNLKSPQTPSQLAGMLAGPAAAASIKSPPVLGSAAASPVHLKSPSLPAPSPGWTSSPKPPLQSPGIPPNHKAPLTMASPAMLGNVESGGPPPPTASQPASVNIPGSLPSSTPYTMPPEPTLSQNPLSIMMSRMSKFAMPSSTPLYHDAIKTVASSDDDSPPARSPNLPSMNNMPGMGINTQNPRISGPNPVVPMPTLSPMGMTQPLSHSNQMPSPNAVGPNIPPHGVPMGPGLMSHNPIMGHGSQEPPMVPQGRMGFPQGFPPVQSPPQQVPFPHNGPSGGQGSFPGGMGFPGEGPLGRPSNLPQSSADAALCKPGGPGGPDSFTVLGNSMPSVFTDPDLQEVIRPGATGIPEFDLSRIIPSEKPSQTLQYFPRGEVPGRKQPQGPGPGFSHMQGMMGEQAPRMGLALPGMGGPGPVGTPDIPLGTAPSMPGHNPMRPPAFLQQGMMGPHHRMMSPAQSTMPGQPTLMSNPAAAVGMIPGKDRGPAGLYTHPGPVGSPGMMMSMQGMMGPQQNIMIPPQMRPRGMAADVGMGGFSQGPGNPGNMMF
# Variants of: B1
# Details: with ctnb1_human CTNNB1, P35222
# Chain of ctnb1_human CTNNB1, P35222 (P35222 whole entry): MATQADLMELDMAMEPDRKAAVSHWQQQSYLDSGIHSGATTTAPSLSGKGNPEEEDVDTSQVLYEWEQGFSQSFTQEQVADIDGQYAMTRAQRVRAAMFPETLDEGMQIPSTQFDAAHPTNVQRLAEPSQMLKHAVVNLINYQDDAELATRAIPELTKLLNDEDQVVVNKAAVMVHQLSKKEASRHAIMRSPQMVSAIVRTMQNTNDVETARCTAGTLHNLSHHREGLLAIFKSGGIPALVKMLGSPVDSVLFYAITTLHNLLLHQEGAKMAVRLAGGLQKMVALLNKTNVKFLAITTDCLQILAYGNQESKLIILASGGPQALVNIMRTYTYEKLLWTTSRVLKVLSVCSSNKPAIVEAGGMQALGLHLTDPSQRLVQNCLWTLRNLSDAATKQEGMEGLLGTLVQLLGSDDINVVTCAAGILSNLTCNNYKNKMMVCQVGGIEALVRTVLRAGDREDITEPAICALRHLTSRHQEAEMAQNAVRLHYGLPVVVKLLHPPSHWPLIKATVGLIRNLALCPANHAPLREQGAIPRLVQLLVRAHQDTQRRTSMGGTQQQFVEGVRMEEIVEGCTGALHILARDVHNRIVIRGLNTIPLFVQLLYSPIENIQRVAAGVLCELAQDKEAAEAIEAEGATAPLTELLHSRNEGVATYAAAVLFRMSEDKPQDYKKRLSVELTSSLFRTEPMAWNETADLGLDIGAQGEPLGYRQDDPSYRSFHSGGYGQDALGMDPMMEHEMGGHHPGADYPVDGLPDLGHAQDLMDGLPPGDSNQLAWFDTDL
row,Variant,effect of a mutation on the interaction
1,H358A,decreasing interaction
2,R359A,decreasing interaction
3,L366A,decreasing interaction
4,I369A,decreasing interaction
